T1: PPIH W133A mutant (human, UniProt O43447 1-177, W133A)
T1 sequence: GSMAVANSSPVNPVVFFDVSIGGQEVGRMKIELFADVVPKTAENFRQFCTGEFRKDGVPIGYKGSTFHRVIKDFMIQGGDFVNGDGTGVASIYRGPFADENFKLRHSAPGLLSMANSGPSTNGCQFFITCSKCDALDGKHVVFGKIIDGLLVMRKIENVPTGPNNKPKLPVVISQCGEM


Experiments:
[1] = target: T2, peptidyl-prolyl isomerase H (PPIH), full length, wild type (human, UniProt O43447 1-177); test: SPR
PPIH W133A mutant = target: T1, PPIH W133A mutant; test: SPR
[2] = target: T2, peptidyl-prolyl isomerase H (PPIH), …; test: AUC

Row | Binder | Kd [1] [µM] | binding result (PPIH W133A mutant) | stoichiometry N [2] | Kd (PPIH W133A mutant) [µM]
1 | pre-mRNA processing factor 4 (PRPF4), residues 106-169 (domain or fragment, human, UniProt O43172 106-169, looked up) SEVKACLRALGEPITLFGEGPAERRERLRNILSVVGTDALKKTKKDDEKSKKSKEEYQQTWYHE |  | binds | 2 | 
2 | pre-mRNA processing factor 4 (PRPF4), residues 1-169 (domain or fragment, human, UniProt O43172 1-169, looked up) MASSRASSTQATKTKAPDDLVAPVVKKPHIYYGSLEEKERERLAKGESGILGKDGLKAGIEAGNINITSGEVFEIEEHISERQAEVLAEFERRKRARQINVSTDDSEVKACLRALGEPITLFGEGPAERRERLRNILSVVGTDALKKTKKDDEKSKKSKEEYQQTWYHE | 0.39 ± 0.04 | binds |  | 
3 | PRPF4 residues 1-169 with F122A (domain or fragment, human, UniProt O43172 1-169, looked up) MASSRASSTQATKTKAPDDLVAPVVKKPHIYYGSLEEKERERLAKGESGILGKDGLKAGIEAGNINITSGEVFEIEEHISERQAEVLAEFERRKRARQINVSTDDSEVKACLRALGEPITLAGEGPAERRERLRNILSVVGTDALKKTKKDDEKSKKSKEEYQQTWYHE | 15.6 |  |  | 

More lines, now with the values ahead:

Row | Kd [1] [µM] | binding result (PPIH W133A mutant) | stoichiometry N [2] | Kd (PPIH W133A mutant) [µM] | Binder
4 | 10.8 ± 1.37 | binds |  |  | pre-mRNA processing factor 4 (PRPF4), residues 1-98 (domain or fragment, human, UniProt O43172 1-98, looked up) MASSRASSTQATKTKAPDDLVAPVVKKPHIYYGSLEEKERERLAKGESGILGKDGLKAGIEAGNINITSGEVFEIEEHISERQAEVLAEFERRKRARQ
5 |  |  |  | 1 | PRPF4 residues 106-169 with F122A (domain or fragment, human, UniProt O43172 106-169, looked up) SEVKACLRALGEPITLAGEGPAERRERLRNILSVVGTDALKKTKKDDEKSKKSKEEYQQTWYHE
